Where only a bound is given, the exact number is not on record here.

The target in this test is T1, HLA-A*02:01 (human).
T1 construct: Captured on streptavidin plates and detected with anti-b2m; also called peptide-receptive MHC molecules; MHC class I
Put plainly: UV-ligand exchange, anti-b2m ELISA; peptide exchange yield grade (+ >=10%, ++ >=20%, +++ >=50, ++++ >=75%). From the text:
Candidate peptides for T cell based therapies according to the present invention were further tested for their MHC binding capacity (affinity). The individual peptide-MHC complexes were produced by UV-ligand exchange, where a UV-sensitive peptide is cleaved upon UV-irradiation, and exchanged with the peptide of interest as analyzed. Only peptide candidates that can effectively bind and stabilize the peptide-receptive MHC molecules prevent dissociation of the MHC complexes. To determine the yield of the exchange reaction, an ELISA was performed based on the detection of the light chain (β2m) of stabilized MHC complexes. The assay was performed as generally described in Rodenko et al. (Rodenko et al., 2006).
96 well MAXISorp plates (NUNC) were coated over night with 2 ug/ml streptavidin in PBS at room temperature, washed 4× and blocked for 1 h at 37° C. in 2% BSA containing blocking buffer. Refolded HLA-A*02:01/MLA-001 monomers served as standards, covering the range of 15-500 ng/ml. Peptide-MHC monomers of the UV-exchange reaction were diluted 100 fold in blocking buffer. Samples were incubated for 1 h at 37° C., washed four times, incubated with 2 ug/ml HRP conjugated anti-β2m for 1 h at 37° C., washed again and detected with TMB solution that is stopped with […]. Absorption was measured at 450 nm. Candidate peptides that show a high exchange yield (preferably higher than 50%, most preferred higher than 75%) are generally preferred for a generation and production of antibodies or fragments thereof, and/or T cell receptors or fragments thereof, as they show sufficient avidity to the MHC molecules and prevent dissociation of the MHC complexes.
(ELISA stands for enzyme-linked immunosorbent assay.)
Take ALLDGGSEAYWRV: the peptide exchange yield was in the range of 50 to 75%.
The value for ILASLATSV was 50 to 75%.
The value for VLINTSVTL was 50 to 75%.
The value for HLIAEIHTA (also called PTHL-001) was 50 to 75%; that for KITEAIQYV was 50 to 75%.
Molecule KVANIIAEV yielded a peptide exchange yield of 20 to 50%.
KVADYIPQL registered a peptide exchange yield of 50 to 75%.
In the case of FLDNGPKTI, the peptide exchange yield lay within 50 to 75%.
Molecule VLVPYEPPQV had a peptide exchange yield of 20 to 50%.
Take AVLPHVDQV: the peptide exchange yield was 50 to 75%.
The value for GQDVGRYQV was 20 to 50%; that for ASDPILYRPVAV was 50 to 75%.
The value for ALQEALENA was 20 to 50%.
PAVLQSSGLYSL displayed a peptide exchange yield of 20 to 50%.
Turning to SMNGGVFAV, the peptide exchange yield lay in the range of 20 to 50%.
NIIELVHQV came in with a peptide exchange yield not below 75%.
The result for ALADGVVSQA reads 50 to 75%; that for FVLDTSESV, 50 to 75%.
The result for SLADSLYNL reads 20 to 50%.
The result for SILRHVAEV reads 20 to 50%.
Take KLIDDVHRL: the peptide exchange yield is not below 75%.
The result for FLPPAQVTV reads 20 to 50%.
The result for HLLGHLEQA reads 50 to 75%; that for SIYEYYHAL, 50 to 75%.
The molecule SLAESLDQA came in with a peptide exchange yield of 50 to 75%.
The value for SLDENSDQQV was 50 to 75%.
The result for GLLVGSEKVTM reads 50 to 75%.

(Values after US20180282393A1 (IMMATICS BIOTECHNOLOGIES, published 2018).)
